Assay results reported in article PMC8794802.

Assays:
[1] = molecular target: T1, Pus7 D256A (Saccharomyces cerevisiae, UniProt Q08647 1-676, D256A); experiment: stopped-flow fluorescence
T1 sequence: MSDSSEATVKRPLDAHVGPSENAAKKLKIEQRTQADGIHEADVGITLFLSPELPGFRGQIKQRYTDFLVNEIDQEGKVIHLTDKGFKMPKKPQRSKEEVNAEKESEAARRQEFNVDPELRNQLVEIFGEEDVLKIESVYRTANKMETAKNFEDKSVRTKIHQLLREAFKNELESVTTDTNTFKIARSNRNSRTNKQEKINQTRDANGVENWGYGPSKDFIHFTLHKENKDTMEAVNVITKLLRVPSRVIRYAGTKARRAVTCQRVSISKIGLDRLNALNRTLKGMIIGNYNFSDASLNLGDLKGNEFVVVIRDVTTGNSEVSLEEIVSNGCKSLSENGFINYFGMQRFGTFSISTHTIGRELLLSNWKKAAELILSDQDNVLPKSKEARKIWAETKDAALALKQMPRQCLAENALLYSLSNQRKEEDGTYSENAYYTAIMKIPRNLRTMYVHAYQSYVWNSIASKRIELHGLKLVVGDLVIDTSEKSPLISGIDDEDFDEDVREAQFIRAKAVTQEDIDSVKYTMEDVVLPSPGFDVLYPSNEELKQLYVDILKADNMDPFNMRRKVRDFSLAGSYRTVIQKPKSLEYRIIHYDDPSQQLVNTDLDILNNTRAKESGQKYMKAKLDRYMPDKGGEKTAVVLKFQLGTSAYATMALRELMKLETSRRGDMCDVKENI

[2] = molecular target: T1, Pus7 D256A; experiment: EMSA
[3] = molecular target: T2, Pus7 D256A/F307A (Saccharomyces cerevisiae, UniProt Q08647 1-676, D256A;F307A); experiment: EMSA
T2 sequence: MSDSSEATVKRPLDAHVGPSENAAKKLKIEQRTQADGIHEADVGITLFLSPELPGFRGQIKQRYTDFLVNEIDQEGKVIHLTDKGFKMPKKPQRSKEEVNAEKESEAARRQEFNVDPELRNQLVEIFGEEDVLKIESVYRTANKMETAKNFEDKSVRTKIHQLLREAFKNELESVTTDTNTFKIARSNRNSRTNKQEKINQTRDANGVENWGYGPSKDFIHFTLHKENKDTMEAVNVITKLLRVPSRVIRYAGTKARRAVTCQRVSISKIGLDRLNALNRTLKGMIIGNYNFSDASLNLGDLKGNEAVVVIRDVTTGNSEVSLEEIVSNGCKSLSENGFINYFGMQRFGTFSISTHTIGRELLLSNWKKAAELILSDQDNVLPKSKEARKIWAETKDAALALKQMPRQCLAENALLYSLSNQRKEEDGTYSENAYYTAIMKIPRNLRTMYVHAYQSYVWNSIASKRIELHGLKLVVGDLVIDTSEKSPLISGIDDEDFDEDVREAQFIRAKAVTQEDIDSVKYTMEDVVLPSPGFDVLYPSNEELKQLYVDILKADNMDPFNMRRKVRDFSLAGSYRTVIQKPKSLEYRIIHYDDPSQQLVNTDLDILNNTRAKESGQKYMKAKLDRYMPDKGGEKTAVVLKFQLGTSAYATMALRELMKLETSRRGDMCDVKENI

[4] = molecular target: T3, Pus1 (Saccharomyces cerevisiae, UniProt Q12211 1-544); experiment: EMSA
T3 sequence: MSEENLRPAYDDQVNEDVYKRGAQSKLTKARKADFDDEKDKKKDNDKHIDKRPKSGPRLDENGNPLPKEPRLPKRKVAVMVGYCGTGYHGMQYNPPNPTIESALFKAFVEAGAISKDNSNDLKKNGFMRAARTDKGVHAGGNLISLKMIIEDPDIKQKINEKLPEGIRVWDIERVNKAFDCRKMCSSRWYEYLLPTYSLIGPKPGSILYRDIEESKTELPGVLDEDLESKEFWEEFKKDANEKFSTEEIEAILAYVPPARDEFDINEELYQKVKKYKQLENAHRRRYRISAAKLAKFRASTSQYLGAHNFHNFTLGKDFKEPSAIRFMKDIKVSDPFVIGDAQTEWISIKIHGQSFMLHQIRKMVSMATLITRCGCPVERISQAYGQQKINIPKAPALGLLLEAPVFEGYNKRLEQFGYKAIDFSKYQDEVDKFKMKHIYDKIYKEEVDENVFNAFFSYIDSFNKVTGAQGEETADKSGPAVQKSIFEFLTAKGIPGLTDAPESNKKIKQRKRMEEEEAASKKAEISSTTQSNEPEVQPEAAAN

B1: CDC8 (cdc8-FL, 61 nt) (ssRNA)
RNA: GUCAAUCACGAUUGUAGACGUUACUAAUAAGGGCAUUCAGGAAGUUGAAGCGCUUAUUUGG
Kd [1]: ~0.085 µM
Kd [2]: 0.06 ± 0.015 µM
Kd [3]: 0.34 ± 0.17 µM
binding result [4]: binds
